These results are taken from article PMC9775377, “The High-Resolution Structure Reveals Remarkable Similarity in PD-1 Binding of Cemiplimab and Dostarlimab, the FDA-Approved Antibodies for Cancer Immunotherapy” (Biomedicines, 2022).

For the assay, the target named is T1, extracellular domain of human PD-1 (aa 26-150) (human, UniProt Q15116).
T1 construct: Programmed cell death-1 (PD-1), human, extracellular domain, aa 26-150; any point mutation of the construct would be told there or in PDB 8GY5; also called Programmed cell death-1; ectodomain of PD-1
Nature of the assay: crystal structure; Fab mixed with PD-1 at a molar ratio of 1:1.2, complex purified by gel filtration (20 mM Tris pH 7.5, 200 mM NaCl); hanging-drop vapor diffusion, 0.1 M sodium HEPES pH 7.5, 5% PEG 3350, 20 °C; 1.98 Å, two copies of the complex in the asymmetric unit. The conditions noted are these: both partners purified.

T1 sequence (Q15116 26-150): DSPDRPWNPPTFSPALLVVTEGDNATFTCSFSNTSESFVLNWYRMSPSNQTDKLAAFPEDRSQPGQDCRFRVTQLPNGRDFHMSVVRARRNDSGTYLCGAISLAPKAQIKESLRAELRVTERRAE

B1: cemiplimab Fab (Fab, V domains shown)
VH: EVQLLESGGVLVQPGGSLRLSCAASGFTFSNFGMTWVRQAPGKGLEWVSGISGGGRDTYFADSVKGRFTISRDNSKNTLYLQMNSLKGEDTAVYYCVKWGNIYFDYWGQGTLVTVSS
VL: DIQMTQSPSSLSASVGDSITITCRASLSINTFLNWYQQKPGKAPNLLIYAASSLHGGVPSRFSGSGSGTDFTLTIRTLQPEDFATYYCQQSSNTPFTFGPGTVVDFR
notes: heavy chain of the cemiplimab Fab; in PDB 8GY5 (deposited here); light chain (kappa) of the cemiplimab Fab; Cemiplimab is a fully human IgG4 (S228P) kappa antibody; also called Fab fragment of cemiplimab; LIBTAYO
For B1, the binding result is “binds”.
